Molecular target: β-clamp of the Escherichia coli replisome (E. coli) (UniProt P0A988)
UniProt P0A988, sequence (P0A988 whole entry): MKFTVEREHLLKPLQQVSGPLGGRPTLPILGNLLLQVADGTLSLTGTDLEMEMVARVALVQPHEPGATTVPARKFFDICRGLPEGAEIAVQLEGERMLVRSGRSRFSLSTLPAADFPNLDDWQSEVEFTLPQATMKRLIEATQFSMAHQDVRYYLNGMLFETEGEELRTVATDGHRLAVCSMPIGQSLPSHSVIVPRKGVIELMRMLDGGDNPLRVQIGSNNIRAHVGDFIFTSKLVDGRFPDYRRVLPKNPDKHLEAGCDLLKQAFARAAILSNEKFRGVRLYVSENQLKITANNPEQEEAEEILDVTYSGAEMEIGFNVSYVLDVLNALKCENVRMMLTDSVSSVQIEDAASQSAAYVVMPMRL

DNA polymerase I (from UniProt P00582 1-928) (enzyme)
rate of cleavage of a 10 nucleotide 5' flap by Pol I, with template-loaded β-clamp against without (denaturing gel): 2.5 fold

— publication PMC6010275
